Results on 10 molecules are retold here after patent publication US20150344570A1 (published 2015).

Experiment [1] addresses T1, FcγRIIa R (FcγRIIa, allotype with Arg at position 131), extracellular domain with C-terminal His tag (human, UniProt P12318 34-217).
T1 construct: extracellular domain; also called FcγRIIa R type; 2aR
T1 sequence (looked up): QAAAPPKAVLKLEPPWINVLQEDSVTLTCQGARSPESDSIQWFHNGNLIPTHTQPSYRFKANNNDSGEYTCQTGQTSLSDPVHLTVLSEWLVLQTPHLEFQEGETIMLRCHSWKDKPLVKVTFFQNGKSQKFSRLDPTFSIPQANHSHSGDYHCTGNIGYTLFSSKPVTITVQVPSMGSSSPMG
The experiment is described as follows: SPR (Biacore), antibody captured on antigen peptide chip, FcγR as analyte; relative binding. In general terms: Surface plasmon resonance follows binding to a sensor surface in real time, without labels.

Experiment [2] deals with T2, FcγRIIIa extracellular domain with C-terminal His tag (human, UniProt P08637 17-208).
T2 construct: extracellular domain; also called FcgRIIIa; 3a; not shown: His tag attached to the C terminus
As to the kind of experiment: SPR Biacore, captured antibody, FcγR analyte, relative binding. How it is done: Analysis of interaction between objective antibody and the FcγR was carried out using Biacore T100 (GE Healthcare). HBS-EP+ (GE Healthcare) was used as the running buffer, and the measurement temperature was set to 25° C. Chips produced by immobilizing the antigen peptide by the amine coupling method to a Series S Sencor Chip CM5 (GE Healthcare), or alternatively, chips produced by allowing preliminarily biotinylated antigen peptides to interact with and immobilize onto a Series S Sensor Chip SA (certified) (GE Healthcare) were used. Antibodies of interest were captured onto an antigen peptide-immobilized chip, and allowed to interact to each FcγR diluted with running buffer. To regenerate and repeatedly use the chip, the antibodies captured on the chip were washed off by reacting 10 mM glycine-HCl, pH 1.5.

T2 sequence (P08637 17-208): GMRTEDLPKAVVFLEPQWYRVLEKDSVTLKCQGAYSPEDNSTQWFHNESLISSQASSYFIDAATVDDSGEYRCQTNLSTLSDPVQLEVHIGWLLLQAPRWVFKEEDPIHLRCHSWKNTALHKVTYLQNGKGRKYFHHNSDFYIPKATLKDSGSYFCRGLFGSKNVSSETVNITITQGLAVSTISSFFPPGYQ

B1: GpH7-A5/GpH7-B3 variant Y296_14T/GpL16-k0 (antibody, human IgG1, kappa)
heavy 1: not shown
heavy 2: not shown
light: DIVMTQSPLSLPVTPGEPASISCQASESLVHSNRNTYLHWYLQKPGQSPQLLIYKVSNRFSGVPDRFSGSGSGTDFTLKISRVEAEDVGVYYCSQNTHVPPTFGQGTKVEIERTVAAPSVFIFPPSDEQLKSGTASVVCLLNNFYPREAKVQWKVDNALQSGNSQESVTEQDSKDSTYSLSSTLTLSKADYEKHKVYACEVTHQGLSSPVTKSFNRGEC
notes: also called He Ab
B1: the He/Con_2aR in experiment [1] was 103 % of GpH7-A5/GpH7-B3/GpL16-k0 (=100).

B2: GpH7-B3 variant K334_01G/GpL16-k0 (antibody, human IgG1, kappa)
heavy: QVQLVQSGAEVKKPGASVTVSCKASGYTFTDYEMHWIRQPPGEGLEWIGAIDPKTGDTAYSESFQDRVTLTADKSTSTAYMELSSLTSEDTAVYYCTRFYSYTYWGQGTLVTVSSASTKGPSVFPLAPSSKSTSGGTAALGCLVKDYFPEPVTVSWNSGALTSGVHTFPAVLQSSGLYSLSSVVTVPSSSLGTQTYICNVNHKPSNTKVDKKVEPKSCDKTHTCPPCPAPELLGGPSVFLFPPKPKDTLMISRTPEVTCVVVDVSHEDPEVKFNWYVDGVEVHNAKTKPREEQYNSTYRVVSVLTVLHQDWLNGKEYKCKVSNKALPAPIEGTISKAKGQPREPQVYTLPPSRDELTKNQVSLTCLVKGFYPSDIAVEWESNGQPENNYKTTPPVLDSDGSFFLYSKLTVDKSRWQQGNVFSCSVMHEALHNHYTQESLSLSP
light: DIVMTQSPLSLPVTPGEPASISCQASESLVHSNRNTYLHWYLQKPGQSPQLLIYKVSNRFSGVPDRFSGSGSGTDFTLKISRVEAEDVGVYYCSQNTHVPPTFGQGTKVEIERTVAAPSVFIFPPSDEQLKSGTASVVCLLNNFYPREAKVQWKVDNALQSGNSQESVTEQDSKDSTYSLSSTLTLSKADYEKHKVYACEVTHQGLSSPVTKSFNRGEC
notes: also called Ho Ab K334_01G
For the molecule B2, in experiment [2], the Ho/Con_3a is 104 % of HoCon Ab GpH7-B3/GpL16-k0 (=100).

B3: GpH7-B3 variant H268_09D/GpL16-k0 (antibody, human IgG1, kappa)
heavy: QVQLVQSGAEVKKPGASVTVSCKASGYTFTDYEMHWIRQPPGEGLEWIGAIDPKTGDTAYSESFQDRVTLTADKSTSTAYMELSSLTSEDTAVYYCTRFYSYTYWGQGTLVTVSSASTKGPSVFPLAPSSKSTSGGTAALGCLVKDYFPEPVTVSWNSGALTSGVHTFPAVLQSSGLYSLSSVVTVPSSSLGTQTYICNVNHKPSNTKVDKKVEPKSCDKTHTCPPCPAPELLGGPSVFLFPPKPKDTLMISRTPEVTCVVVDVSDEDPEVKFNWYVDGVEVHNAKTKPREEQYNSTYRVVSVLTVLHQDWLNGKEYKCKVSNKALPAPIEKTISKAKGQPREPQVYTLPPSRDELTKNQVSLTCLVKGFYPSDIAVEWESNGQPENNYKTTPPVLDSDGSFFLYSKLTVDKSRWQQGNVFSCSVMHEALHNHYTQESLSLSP
light: DIVMTQSPLSLPVTPGEPASISCQASESLVHSNRNTYLHWYLQKPGQSPQLLIYKVSNRFSGVPDRFSGSGSGTDFTLKISRVEAEDVGVYYCSQNTHVPPTFGQGTKVEIERTVAAPSVFIFPPSDEQLKSGTASVVCLLNNFYPREAKVQWKVDNALQSGNSQESVTEQDSKDSTYSLSSTLTLSKADYEKHKVYACEVTHQGLSSPVTKSFNRGEC
notes: also called Ho Ab H268_09D
With B3, the Ho/Con_3a in experiment [2] was 220 % of HoCon Ab GpH7-B3/GpL16-k0 (=100).

B4: GpH7-B3 variant I332_14T/GpL16-k0 (antibody, human IgG1, kappa)
heavy: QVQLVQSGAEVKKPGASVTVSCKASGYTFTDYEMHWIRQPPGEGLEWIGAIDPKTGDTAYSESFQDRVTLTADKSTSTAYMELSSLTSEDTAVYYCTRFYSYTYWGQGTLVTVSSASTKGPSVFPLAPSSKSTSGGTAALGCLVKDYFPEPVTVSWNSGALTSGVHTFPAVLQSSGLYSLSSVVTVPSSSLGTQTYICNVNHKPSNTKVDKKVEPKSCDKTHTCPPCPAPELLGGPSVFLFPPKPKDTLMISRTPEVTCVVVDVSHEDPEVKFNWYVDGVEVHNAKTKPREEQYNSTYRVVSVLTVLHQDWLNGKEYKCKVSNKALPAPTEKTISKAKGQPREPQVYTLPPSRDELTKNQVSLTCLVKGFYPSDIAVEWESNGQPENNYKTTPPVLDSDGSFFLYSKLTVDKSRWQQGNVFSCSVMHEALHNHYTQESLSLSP
light: DIVMTQSPLSLPVTPGEPASISCQASESLVHSNRNTYLHWYLQKPGQSPQLLIYKVSNRFSGVPDRFSGSGSGTDFTLKISRVEAEDVGVYYCSQNTHVPPTFGQGTKVEIERTVAAPSVFIFPPSDEQLKSGTASVVCLLNNFYPREAKVQWKVDNALQSGNSQESVTEQDSKDSTYSLSSTLTLSKADYEKHKVYACEVTHQGLSSPVTKSFNRGEC
notes: also called Ho Ab I332_14T
As to B4, the Ho/Con_3a in experiment [2] was 138 % of HoCon Ab GpH7-B3/GpL16-k0 (=100).

B5: GpH7-B3 variant A330_08L/GpL16-k0 (antibody, human IgG1, kappa)
heavy: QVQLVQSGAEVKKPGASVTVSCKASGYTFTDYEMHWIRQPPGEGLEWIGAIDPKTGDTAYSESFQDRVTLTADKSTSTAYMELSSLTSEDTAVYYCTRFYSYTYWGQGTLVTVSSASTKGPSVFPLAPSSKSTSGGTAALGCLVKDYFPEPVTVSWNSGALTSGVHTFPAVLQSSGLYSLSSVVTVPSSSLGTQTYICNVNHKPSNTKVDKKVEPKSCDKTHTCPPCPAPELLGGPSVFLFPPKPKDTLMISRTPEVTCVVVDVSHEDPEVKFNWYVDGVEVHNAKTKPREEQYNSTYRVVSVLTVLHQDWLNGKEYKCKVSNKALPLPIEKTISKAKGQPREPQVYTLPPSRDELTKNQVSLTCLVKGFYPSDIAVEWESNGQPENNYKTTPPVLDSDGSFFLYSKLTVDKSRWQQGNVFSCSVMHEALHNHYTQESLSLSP
light: DIVMTQSPLSLPVTPGEPASISCQASESLVHSNRNTYLHWYLQKPGQSPQLLIYKVSNRFSGVPDRFSGSGSGTDFTLKISRVEAEDVGVYYCSQNTHVPPTFGQGTKVEIERTVAAPSVFIFPPSDEQLKSGTASVVCLLNNFYPREAKVQWKVDNALQSGNSQESVTEQDSKDSTYSLSSTLTLSKADYEKHKVYACEVTHQGLSSPVTKSFNRGEC
notes: also called Ho Ab A330_08L
As to B5, the Ho/Con_3a in experiment [2] is 138 % of HoCon Ab GpH7-B3/GpL16-k0 (=100).

B6: GpH7-A5/GpH7-B3 variant Y296_19Q/GpL16-k0 (antibody, human IgG1, kappa)
heavy 1: not shown
heavy 2: not shown
light: DIVMTQSPLSLPVTPGEPASISCQASESLVHSNRNTYLHWYLQKPGQSPQLLIYKVSNRFSGVPDRFSGSGSGTDFTLKISRVEAEDVGVYYCSQNTHVPPTFGQGTKVEIERTVAAPSVFIFPPSDEQLKSGTASVVCLLNNFYPREAKVQWKVDNALQSGNSQESVTEQDSKDSTYSLSSTLTLSKADYEKHKVYACEVTHQGLSSPVTKSFNRGEC
notes: also called He Ab
As for B6, in experiment [1], the He/Con_2aR was 102 % of GpH7-A5/GpH7-B3/GpL16-k0 (=100).

B7: GpH7-B3 variant A330_20W/GpL16-k0 (antibody, human IgG1, kappa)
heavy: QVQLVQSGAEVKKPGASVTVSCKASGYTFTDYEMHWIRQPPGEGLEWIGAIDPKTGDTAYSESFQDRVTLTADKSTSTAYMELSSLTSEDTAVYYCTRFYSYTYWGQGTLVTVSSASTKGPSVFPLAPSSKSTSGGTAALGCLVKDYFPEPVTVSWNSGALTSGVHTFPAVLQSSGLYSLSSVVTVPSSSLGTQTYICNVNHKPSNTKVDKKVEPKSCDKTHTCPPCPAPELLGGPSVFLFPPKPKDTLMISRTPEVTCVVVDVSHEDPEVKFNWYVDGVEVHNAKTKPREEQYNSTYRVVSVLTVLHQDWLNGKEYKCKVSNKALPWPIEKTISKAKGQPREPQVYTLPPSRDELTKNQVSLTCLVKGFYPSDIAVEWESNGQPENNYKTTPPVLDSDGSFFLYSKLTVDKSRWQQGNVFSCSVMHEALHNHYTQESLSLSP
light: DIVMTQSPLSLPVTPGEPASISCQASESLVHSNRNTYLHWYLQKPGQSPQLLIYKVSNRFSGVPDRFSGSGSGTDFTLKISRVEAEDVGVYYCSQNTHVPPTFGQGTKVEIERTVAAPSVFIFPPSDEQLKSGTASVVCLLNNFYPREAKVQWKVDNALQSGNSQESVTEQDSKDSTYSLSSTLTLSKADYEKHKVYACEVTHQGLSSPVTKSFNRGEC
notes: also called Ho Ab A330_20W
Consider B7, for which the Ho/Con_3a in experiment [2] was 118 % of HoCon Ab GpH7-B3/GpL16-k0 (=100).

B8: GpH7-B3 variant I332_09D/GpL16-k0 (antibody, human IgG1, kappa)
heavy: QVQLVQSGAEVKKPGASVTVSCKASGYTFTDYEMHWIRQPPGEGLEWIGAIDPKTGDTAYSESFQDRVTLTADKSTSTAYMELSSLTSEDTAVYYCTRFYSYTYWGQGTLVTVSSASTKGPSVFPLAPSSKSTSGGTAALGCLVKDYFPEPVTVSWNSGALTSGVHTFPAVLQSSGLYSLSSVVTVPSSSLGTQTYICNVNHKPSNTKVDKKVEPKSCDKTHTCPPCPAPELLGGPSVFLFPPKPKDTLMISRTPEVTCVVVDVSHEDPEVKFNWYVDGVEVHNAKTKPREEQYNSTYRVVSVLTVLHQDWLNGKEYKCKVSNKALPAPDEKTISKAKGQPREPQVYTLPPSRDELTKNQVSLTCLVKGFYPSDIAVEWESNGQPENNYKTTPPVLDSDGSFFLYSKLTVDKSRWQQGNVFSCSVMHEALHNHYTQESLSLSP
light: DIVMTQSPLSLPVTPGEPASISCQASESLVHSNRNTYLHWYLQKPGQSPQLLIYKVSNRFSGVPDRFSGSGSGTDFTLKISRVEAEDVGVYYCSQNTHVPPTFGQGTKVEIERTVAAPSVFIFPPSDEQLKSGTASVVCLLNNFYPREAKVQWKVDNALQSGNSQESVTEQDSKDSTYSLSSTLTLSKADYEKHKVYACEVTHQGLSSPVTKSFNRGEC
notes: also called Ho Ab I332_09D
B8: the Ho/Con_3a in experiment [2] is 255 % of HoCon Ab GpH7-B3/GpL16-k0 (=100).

B9: GpH7-B3 variant A330_04F/GpL16-k0 (antibody, human IgG1, kappa)
heavy: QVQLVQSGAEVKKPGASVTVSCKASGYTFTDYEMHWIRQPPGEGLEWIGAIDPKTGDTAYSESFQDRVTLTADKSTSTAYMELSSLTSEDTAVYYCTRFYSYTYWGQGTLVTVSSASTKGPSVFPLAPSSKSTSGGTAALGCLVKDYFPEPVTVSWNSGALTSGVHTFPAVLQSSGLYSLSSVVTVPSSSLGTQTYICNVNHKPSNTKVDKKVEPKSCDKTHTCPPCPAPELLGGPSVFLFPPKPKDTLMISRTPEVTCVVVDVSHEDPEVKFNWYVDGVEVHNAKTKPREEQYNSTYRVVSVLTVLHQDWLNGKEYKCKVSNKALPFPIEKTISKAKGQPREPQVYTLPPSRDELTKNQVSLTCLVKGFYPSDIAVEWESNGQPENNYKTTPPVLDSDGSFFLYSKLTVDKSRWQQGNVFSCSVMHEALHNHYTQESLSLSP
light: DIVMTQSPLSLPVTPGEPASISCQASESLVHSNRNTYLHWYLQKPGQSPQLLIYKVSNRFSGVPDRFSGSGSGTDFTLKISRVEAEDVGVYYCSQNTHVPPTFGQGTKVEIERTVAAPSVFIFPPSDEQLKSGTASVVCLLNNFYPREAKVQWKVDNALQSGNSQESVTEQDSKDSTYSLSSTLTLSKADYEKHKVYACEVTHQGLSSPVTKSFNRGEC
notes: also called Ho Ab A330_04F
Regarding B9, the Ho/Con_3a in experiment [2] is 174 % of HoCon Ab GpH7-B3/GpL16-k0 (=100).

B10: GpH7-B3 variant H268_13S/GpL16-k0 (antibody, human IgG1, kappa)
heavy: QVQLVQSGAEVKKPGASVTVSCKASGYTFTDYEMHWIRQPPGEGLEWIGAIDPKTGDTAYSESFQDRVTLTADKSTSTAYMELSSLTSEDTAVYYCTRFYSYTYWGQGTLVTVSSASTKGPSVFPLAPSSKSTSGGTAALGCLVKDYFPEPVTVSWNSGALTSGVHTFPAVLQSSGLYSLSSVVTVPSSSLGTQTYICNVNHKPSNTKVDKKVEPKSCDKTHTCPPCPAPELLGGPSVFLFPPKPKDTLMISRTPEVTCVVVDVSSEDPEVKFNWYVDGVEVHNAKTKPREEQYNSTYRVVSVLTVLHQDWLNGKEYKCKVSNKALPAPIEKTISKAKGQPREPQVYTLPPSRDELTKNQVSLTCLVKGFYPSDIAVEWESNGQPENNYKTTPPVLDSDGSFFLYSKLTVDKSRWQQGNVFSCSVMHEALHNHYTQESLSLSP
light: DIVMTQSPLSLPVTPGEPASISCQASESLVHSNRNTYLHWYLQKPGQSPQLLIYKVSNRFSGVPDRFSGSGSGTDFTLKISRVEAEDVGVYYCSQNTHVPPTFGQGTKVEIERTVAAPSVFIFPPSDEQLKSGTASVVCLLNNFYPREAKVQWKVDNALQSGNSQESVTEQDSKDSTYSLSSTLTLSKADYEKHKVYACEVTHQGLSSPVTKSFNRGEC
notes: also called Ho Ab H268_13S
As for B10, in experiment [2], the Ho/Con_3a is 130 % of HoCon Ab GpH7-B3/GpL16-k0 (=100).
